Measurements from the supplement of paper PMC10567573.

B1: BRF1 (parent)
chain: CTACGSVLEDNIIVSEVQFVESSG
B2: GNB5 (parent)
chain: YYPSGDAFASGSDDATCRLYDLRA

Variants of: B1
Experiment: protein stability index of a GFP-peptide fusion (GPS, HEK-293T) (PSI 1-6); higher = more stable
Conditions: c terminus: a fixed tail appended
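Also: lentivirally expressed fusions sorted by FACS into six bins by GFP to DsRed ratio, PSI derived from sequencing read proportions per bin multiplied by bin number.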

Compared with CGACGSVLEDNIIVSEVQFVESSG [T2G], CDACGSVLEDNIIVSEVQFVESSG [T2D] is higher in protein stability index: 2.33 for the first, 3.42 for the second.

Going from CEACGSVLEDNIIVSEVQFVESSG [T2E] to CFACGSVLEDNIIVSEVQFVESSG [T2F], the protein stability index falls from 3.25 to 2.12.

Going from CAACGSVLEDNIIVSEVQFVESSG [T2A] to CHACGSVLEDNIIVSEVQFVESSG [T2H], the protein stability index falls from 3.64 to 3.

Compared with STACGSVLEDNIIVSEVQFVESSG [C1S], ATACGSVLEDNIIVSEVQFVESSG [C1A] is lower in protein stability index: 4.13 for the first, 3.88 for the second.

Compared with WTACGSVLEDNIIVSEVQFVESSG [C1W], ETACGSVLEDNIIVSEVQFVESSG [C1E] is higher in protein stability index: 2.51 for the first, 4.86 for the second.

First: LTACGSVLEDNIIVSEVQFVESSG [C1L]
Second: VTACGSVLEDNIIVSEVQFVESSG [C1V]
The protein stability index of the first is higher: 3.56 for the first, 2.2 for the second.

Compared with QTACGSVLEDNIIVSEVQFVESSG [C1Q], GTACGSVLEDNIIVSEVQFVESSG [C1G] is lower in protein stability index: 4.3 for the first, 4.18 for the second.

Going from TTACGSVLEDNIIVSEVQFVESSG [C1T] to MTACGSVLEDNIIVSEVQFVESSG [C1M], the protein stability index falls from 4.16 to 3.6.

Going from DTACGSVLEDNIIVSEVQFVESSG [C1D] to HTACGSVLEDNIIVSEVQFVESSG [C1H], the protein stability index falls from 4.46 to 3.6.

Compared with ITACGSVLEDNIIVSEVQFVESSG [C1I], RTACGSVLEDNIIVSEVQFVESSG [C1R] is higher in protein stability index: 1.46 for the first, 3.83 for the second.

First: YTACGSVLEDNIIVSEVQFVESSG [C1Y]
Second: PTACGSVLEDNIIVSEVQFVESSG [C1P]
The protein stability index of the first is lower: 3.18 for the first, 3.29 for the second.

First: NTACGSVLEDNIIVSEVQFVESSG [C1N]
Second: FTACGSVLEDNIIVSEVQFVESSG [C1F]
The protein stability index of the first is higher: 3.65 for the first, 2.63 for the second.

Variants of: B2
Experiment: as above
Conditions: c terminus: a fixed tail appended

First: YYPSGDAFASGSDDATCRLYDLWA [R23W]
Second: YYPSGDAFASGSDDATCRLYDLPA [R23P]
The protein stability index of the first is lower: 2.15 for the first, 2.86 for the second.

Going from YYPSGDAFASGSDDATCRLYDLYA [R23Y] to YYPSGDAFASGSDDATCRLYDLLA [R23L], the protein stability index rises from 2.01 to 2.03.

Compared with YYPSGDAFASGSDDATCRLYDLHA [R23H], YYPSGDAFASGSDDATCRLYDLCA [R23C] is lower in protein stability index: 2.87 for the first, 2.27 for the second.

Going from YYPSGDAFASGSDDATCRLYDLNA [R23N] to YYPSGDAFASGSDDATCRLYDLGA [R23G], the protein stability index rises from 2.33 to 2.65.

Going from YYPSGDAFASGSDDATCRLYDLQA [R23Q] to YYPSGDAFASGSDDATCRRYDLRA [L19R], the protein stability index rises from 2.47 to 2.55.

First: YYPSGDAFASGSDDATCRVYDLRA [L19V]
Second: YYPSGDAFASGSDDATCRKYDLRA [L19K]
The protein stability index of the first is lower: 2.56 for the first, 2.77 for the second.

First: YYPSGDAFASGSDDATCRPYDLRA [L19P]
Second: YYPSGDAFASGSDDATCRHYDLRA [L19H]
The protein stability index of the first is higher: 2.61 for the first, 2.44 for the second.

First: YYPSGDAFASGSDDATCREYDLRA [L19E]
Second: YYPSGDAFASGSDDATCRIYDLRA [L19I]
The protein stability index of the first is higher: 3.39 for the first, 2.3 for the second.

First: YEPSGDAFASGSDDATCRLYDLRA [Y2E]
Second: YHPSGDAFASGSDDATCRLYDLRA [Y2H]
The protein stability index of the first is higher: 4.83 for the first, 2.69 for the second.

Compared with YLPSGDAFASGSDDATCRLYDLRA [Y2L], YCPSGDAFASGSDDATCRLYDLRA [Y2C] is lower in protein stability index: 3.34 for the first, 2.09 for the second.

Compared with YQPSGDAFASGSDDATCRLYDLRA [Y2Q], YGPSGDAFASGSDDATCRLYDLRA [Y2G] is lower in protein stability index: 2.4 for the first, 2.26 for the second.

Going from YVPSGDAFASGSDDATCRLYDLRA [Y2V] to YFPSGDAFASGSDDATCRLYDLRA [Y2F], the protein stability index rises from 2.02 to 2.03.

First: YIPSGDAFASGSDDATCRLYDLRA [Y2I]
Second: YDPSGDAFASGSDDATCRLYDLRA [Y2D]
The protein stability index of the first is lower: 2.25 for the first, 4.29 for the second.

First: YYPSGDAFASGSDDATCRLYALRA [D21A]
Second: YYPSGDAFASGSDDATCRLYFLRA [D21F]
The protein stability index of the first is higher: 2.18 for the first, 1.5 for the second.

Compared with YYPSGDAFASGSDDATCRLYGLRA [D21G], YYPSGDAFASGSDDATCRLYYLRA [D21Y] is lower in protein stability index: 2.2 for the first, 1.61 for the second.

Going from YYPSGDAFASGSDDATCRLYMLRA [D21M] to YYPSGDAFASGSDDATCRLYHLRA [D21H], the protein stability index rises from 2.23 to 2.31.

Going from YYPSGDAFASGSDDATCRLYRLRA [D21R] to YYPSGDAFASGSDDATCRLYDLRP [A24P], the protein stability index rises from 1.99 to 2.34.

Going from YYPSGDAFASGSDDATCRLYDLRW [A24W] to YYPSGDAFASGSDDATCRLYDLRF [A24F], the protein stability index rises from 2 to 2.07.

First: YYPSGDAFASGSDDATCRLYDLRD [A24D]
Second: YYPSGDAFASGSDDATCRLYDLRH [A24H]
The protein stability index of the first is higher: 2.62 for the first, 2.24 for the second.

Compared with YYPSGDAFASGSDDRTCRLYDLRA [A15R], YYPSGDAFASGSDDFTCRLYDLRA [A15F] is lower in protein stability index: 2.24 for the first, 2.1 for the second.

Going from YYPSGDAFASGSDDITCRLYDLRA [A15I] to YYPSGDAFASGSDDPTCRLYDLRA [A15P], the protein stability index rises from 1.97 to 2.63.

Going from YYPSGDAFASGSDDLTCRLYDLRA [A15L] to YYPSGDAFASGSDDNTCRLYDLRA [A15N], the protein stability index rises from 2.15 to 2.61.

Compared with YYPSGDAFASGSDDTTCRLYDLRA [A15T], YYPSGDAFASGSDDKTCRLYDLRA [A15K] is higher in protein stability index: 2.26 for the first, 2.35 for the second.

Compared with YYPSRDAFASGSDDATCRLYDLRA [G5R], YYPSNDAFASGSDDATCRLYDLRA [G5N] is higher in protein stability index: 3.12 for the first, 3.88 for the second.

First: YYPSIDAFASGSDDATCRLYDLRA [G5I]
Second: YYPSCDAFASGSDDATCRLYDLRA [G5C]
The protein stability index of the first is lower: 2.8 for the first, 3.39 for the second.

Going from YYPSADAFASGSDDATCRLYDLRA [G5A] to YYPSGDWFASGSDDATCRLYDLRA [A7W], the protein stability index falls from 2.95 to 1.66.

Going from YYPSGDSFASGSDDATCRLYDLRA [A7S] to YYPSGDIFASGSDDATCRLYDLRA [A7I], the protein stability index falls from 2.39 to 2.31.

Going from YYPSGDVFASGSDDATCRLYDLRA [A7V] to YYPSGDNFASGSDDATCRLYDLRA [A7N], the protein stability index rises from 2.23 to 2.73.

Going from YYPSGDFFASGSDDATCRLYDLRA [A7F] to YYPSGDDFASGSDDATCRLYDLRA [A7D], the protein stability index rises from 1.77 to 3.83.

First: YYPSGDAKASGSDDATCRLYDLRA [F8K]
Second: YYPSGDAIASGSDDATCRLYDLRA [F8I]
The protein stability index of the first is higher: 4.19 for the first, 3.42 for the second.

First: YYPSGDAQASGSDDATCRLYDLRA [F8Q]
Second: YYPSGDANASGSDDATCRLYDLRA [F8N]
The protein stability index of the first is lower: 3.71 for the first, 4.23 for the second.

Going from YYPSGDAVASGSDDATCRLYDLRA [F8V] to YYPSGDAGASGSDDATCRLYDLRA [F8G], the protein stability index rises from 4.07 to 4.09.

First: YYPSGDARASGSDDATCRLYDLRA [F8R]
Second: YYPSGDADASGSDDATCRLYDLRA [F8D]
The protein stability index of the first is lower: 3.76 for the first, 4.4 for the second.

First: YYPSGDASASGSDDATCRLYDLRA [F8S]
Second: YYPSGDAWASGSDDATCRLYDLRA [F8W]
The protein stability index of the first is higher: 4.11 for the first, 2.62 for the second.

Going from YYPSGDAMASGSDDATCRLYDLRA [F8M] to YYPSGDAPASGSDDATCRLYDLRA [F8P], the protein stability index rises from 3.53 to 4.12.
